Measured values published in the supplement of paper PMC12458215.
± gives the uncertainty stated by the source.

Test system: HEK293T
Experiment: plasma membrane surface immunostaining intensity (anti-HA, deep receptor scanning) (arbitrary fluorescence units); higher = higher plasma membrane expression

Sequence: MRLSAGPDAGPSGNSSPWWPLATGAGNTSREAEALGEGNGPPRDVRNEELAKLEIAVLAVTFAVAVLGNSSVLLALHRTPRKTSRMHLFIRHLSLADLAVAFFQVLPQMCWDITYRFRGPDWLCRVVKHLQVFGMFASAYMLVVMTADRYIAVCHPLKTLQQPARRSRLMIAAAWVLSFVLSTPQYFVFSMIEVNNVTKARDCWATFIQPWGSRAYVTWMTGGIFVAPVVILGTCYGFICYNIWCNVRGKTASRQSKGAEQAGVAFQKGFLLAPCVSSVKSISRAKIRTVKMTFVIVTAYIVCWAPFFIIQMWSVWDPMSVWTESENPTITITALLGSLNSCCNPWIYMFFSGHLLQDCVQSFPCCQNMKEKFNKEDTDSMSRRQTFYSNNRSPTNSTGMWKDSPKSSKSIKFIPVST [AVPR1A]
- plasma membrane surface immunostaining intensity (GPCR class: A): 497 ± 41

Sequence: MKSDNHSFLGDSPKAFILLGVSDRPWLELPLFVVLLLSYVLAMLGNVAIILASRVDPQLHSPMYIFLSHLSFLDLCYTTTTVPQMLVNMGSSQKTISYGGCTVQYAVFHWLGCTECIVLAAMALDRYVAICKPLHYAVLMHRALCQQLVALAWLSGFGNSFVQVVLTVQLPFCGRQVLNNFFCEVPAVIKLSCADTAVNDTILAVLVAFFVLVPLALILLSYGFIARAVLRIQSSKGRHKAFGTCSSHLMIVSLFYLPAIYMYLQPPSSYSQEQGKFISLFYSIITPTLNPFTYTLRNKDMKGALRRLLARIWRLCG [OR2B11]
- plasma membrane surface immunostaining intensity (GPCR class: A (Olfactory)): 238 ± 84

Sequence: MENQSSISEFFLRGISAPPEQQQSLFGIFLCMYLVTLTGNLLIILAIGSDLHLHTPMYFFLANLSFVDMGLTSSTVTKMLVNIQTRHHTISYTGCLTQMYFFLMFGDLDSFFLAAMAYDRYVAICHPLCYSTVMRPQVCALMLALCWVLTNIVALTHTFLMARLSFCVTGEIAHFFCDITPVLKLSCSDTHINEMMVFVLGGTVLIVPFLCIVTSYIHIVPAILRVRTRGGVGKAFSTCSSHLCVVCVFYGTLFSAYLCPPSIASEEKDIAAAAMYTIVTPMLNPFIYSLRNKDMKGALKRLFSHRSIVSS [OR1N1]
- plasma membrane surface immunostaining intensity (GPCR class: A (Olfactory)): 119 ± 14

Sequence: MGMEGLLQNSTNFVLTGLITHPAFPGLLFAVVFSIFVVAITANLVMILLIHMDSRLHTPMYFLLSQLSIMDTIYICITVPKMLQDLLSKDKTISFLGCAVQIFYLTLIGGEFFLLGLMAYDRYVAVCNPLRYPLLMNRRVCLFMVVGSWVGGSLDGFMLTPVTMSFPFCRSREINHFFCEIPAVLKLSCTDTSLYETLMYACCVLMLLIPLSVISVSYTHILLTVHRMNSAEGRRKAFATCSSHIMVVSVFYGAAFYTNVLPHSYHTPEKDKVVSAFYTILTPMLNPLIYSLRNKDVAAALRKVLGRCGSSQSIRVATVIRKG [OR2T35]
- plasma membrane surface immunostaining intensity (GPCR class: A (Olfactory)): 126 ± 14

Sequence: MELLKLNRSVQGTGPGPGASLCRPGAPLLNSSSVGNLSCEPPRIRGAGTRELELAIRITLYAVIFLMSVGGNMLIIVVLGLSRRLRTVTNAFLLSLAVSDLLLAVACMPFTLLPNLMGTFIFGTVICKAVSYLMGVSVSVSTLSLVAIALERYSAICRPLQARVWQTRSHAARVIVATWLLSGLLMVPYPVYTVVQPVGPRVLQCVHRWPSARVRQTWSVLLLLLLFFIPGVVMAVAYGLISRELYLGLRFDGDSDSDSQSRVRNQGGLPGAVHQNGRCRPETGAVGEDSDGCYVQLPRSRPALELTALTAPGPGSGSRPTQAKLLAKKRVVRMLLVIVVLFFLCWLPVYSANTWRAFDGPGAHRALSGAPISFIHLLSYASACVNPLVYCFMHRRFRQACLETCARCCPRPPRARPRALPDEDPPTPSIASLSRLSYTTISTLGPG [CCKBR]
- plasma membrane surface immunostaining intensity (GPCR class: A): 2920 ± 830

Sequence: MELRNSTLGSGFILVGILNDSGSPELLYATFTILYMLALTSNGLLLLAITIEARLHMPMYLLLGQLSLMDLLFTSVVTPKALADFLRRENTISFGGCALQMFLALTMGSAEDLLLAFMAYDRYVAICHPLKYMTLMSPRVCWIMVATSWILASLIAIGHTMYTMHLPFCVSWEIRHLLCEIPPLLKLACADTSRYELIIYVTGVTFLLLPISAIVASYTLVLFTVLRMPSNEGRKKALVTCSSHLIVVGMFYGAATFMYVLPSSFHSPKQDNIISVFYTIVTPALNPLIYSLRNKEVMRALRRVLGKYILLAHSTL [OR2AG2]
- plasma membrane surface immunostaining intensity (GPCR class: A (Olfactory)): 164 ± 69

Sequence: MGTEATEQVSWGHYSGDEEDAYSAEPLPELCYKADVQAFSRAFQPSVSLTVAALGLAGNGLVLATHLAARRAARSPTSAHLLQLALADLLLALTLPFAAAGALQGWSLGSATCRTISGLYSASFHAGFLFLACISADRYVAIARALPAGPRPSTPGRAHLVSVIVWLLSLLLALPALLFSQDGQREGQRRCRLIFPEGLTQTVKGASAVAQVALGFALPLGVMVACYALLGRTLLAARGPERRRALRVVVALVAAFVVLQLPYSLALLLDTADLLAARERSCPASKRKDVALLVTSGLALARCGLNPVLYAFLGLRFRQDLRRLLRGGSCPSGPQPRRGCPRRPRLSSCSAPTETHSLSWDN [CCR10]
- plasma membrane surface immunostaining intensity (GPCR class: A): 424 ± 20

Sequence: MPSPPGLRALWLCAALCASRRAGGAPQPGPGPTACPAPCHCQEDGIMLSADCSELGLSAVPGDLDPLTAYLDLSMNNLTELQPGLFHHLRFLEELRLSGNHLSHIPGQAFSGLYSLKILMLQNNQLGGIPAEALWELPSLQSLRLDANLISLVPERSFEGLSSLRHLWLDDNALTEIPVRALNNLPALQAMTLALNRISHIPDYAFQNLTSLVVLHLHNNRIQHLGTHSFEGLHNLETLDLNYNKLQEFPVAIRTLGRLQELGFHNNNIKAIPEKAFMGNPLLQTIHFYDNPIQFVGRSAFQYLPKLHTLSLNGAMDIQEFPDLKGTTSLEILTLTRAGIRLLPSGMCQQLPRLRVLELSHNQIEELPSLHRCQKLEEIGLQHNRIWEIGADTFSQLSSLQALDLSWNAIRSIHPEAFSTLHSLVKLDLTDNQLTTLPLAGLGGLMHLKLKGNLALSQAFSKDSFPKLRILEVPYAYQCCPYGMCASFFKASGQWEAEDLHLDDEESSKRPLGLLARQAENHYDQDLDELQLEMEDSKPHPSVQCSPTPGPFKPCEYLFESWGIRLAVWAIVLLSVLCNGLVLLTVFAGGPVPLPPVKFVVGAIAGANTLTGISCGLLASVDALTFGQFSEYGARWETGLGCRATGFLAVLGSEASVLLLTLAAVQCSVSVSCVRAYGKSPSLGSVRAGVLGCLALAGLAAALPLASVGEYGASPLCLPYAPPEGQPAALGFTVALVMMNSFCFLVVAGAYIKLYCDLPRGDFEAVWDCAMVRHVAWLIFADGLLYCPVAFLSFASMLGLFPVTPEAVKSVLLVVLPLPACLNPLLYLLFNPHFRDDLRRLRPRAGDSGPLAYAAAGELEKSSCDSTQALVAFSDVDLILEASEAGRPPGLETYGFPSVTLISCQQPGAPRLEGSHCVEPEGNHFGNPQPSMDGELLLRAEGSTPAGGGLSGGGGFQPSGLAFASHV [LGR6]
- plasma membrane surface immunostaining intensity (GPCR class: A): 479 ± 50

Sequence: MSGDNSSSLTPGFFILNGVPGLEATHIWISLPFCFMYIIAVVGNCGLICLISHEEALHRPMYYFLALLSFTDVTLCTTMVPNMLCIFWFNLKEIDFNACLAQMFFVHMLTGMESGVLMLMALDRYVAICYPLRYATILTNPVIAKAGLATFLRNVMLIIPFTLLTKRLPYCRGNFIPHTYCDHMSVAKVSCGNFKVNAIYGLMVALLIGVFDICCISVSYTMILQAVMSLSSADARHKAFSTCTSHMCSIVITYVAAFFTFFTHRFVGHNIPNHIHIIVANLYLLLPPTMNPIVYGVKTKQIQEGVIKFLLGDKVSFTYDK [OR52N2]
- plasma membrane surface immunostaining intensity (GPCR class: A (Olfactory)): 157 ± 54

Sequence: MGRWVNQSYTDGFFLLGIFSHSQTDLVLFSAVMVVFTVALCGNVLLIFLIYLDAGLHTPMYFFLSQLSLMDLMLVCNIVPKMAANFLSGRKSISFVGCGIQIGFFVSLVGSEGLLLGLMAYDRYVAVSHPLHYPILMNQRVCLQITGSSWAFGIIDGVIQMVAAMGLPYCGSRSVDHFFCEVQALLKLACADTSLFDTLLFACCVFMLLLPFSIIMASYACILGAVLRIRSAQAWKKALATCSSHLTAVTLFYGAAMFMYLRPRRYRAPSHDKVASIFYTVLTPMLNPLIYSLRNGEVMGALRKGLDRCRIGSQH [OR2V1]
- plasma membrane surface immunostaining intensity (GPCR class: A (Olfactory)): 153 ± 28

Sequence: MDLGKPMKSVLVVALLVIFQVCLCQDEVTDDYIGDNTTVDYTLFESLCSKKDVRNFKAWFLPIMYSIICFVGLLGNGLVVLTYIYFKRLKTMTDTYLLNLAVADILFLLTLPFWAYSAAKSWVFGVHFCKLIFAIYKMSFFSGMLLLLCISIDRYVAIVQAVSAHRHRARVLLISKLSCVGIWILATVLSIPELLYSDLQRSSSEQAMRCSLITEHVEAFITIQVAQMVIGFLVPLLAMSFCYLVIIRTLLQARNFERNKAIKVIIAVVVVFIVFQLPYNGVVLAQTVANFNITSSTCELSKQLNIAYDVTYSLACVRCCVNPFLYAFIGVKFRNDLFKLFKDLGCLSQEQLRQWSSCRHIRRSSMSVEAETTTTFSP [CCR7]
- plasma membrane surface immunostaining intensity (GPCR class: A): 2440 ± 380

Sequence: MGSFNTSFEDGFILVGFSDWPQLEPILFVFIFIFYSLTLFGNTIIIALSWLDLRLHTPMYFFLSHLSLLDLCFTTSTVPQLLINLCGVDRTITRGGCVAQLFIYLALGSTECVLLVVMAFDRYAAVCRPLHYMAIMHPHLCQTLAIASWGAGFVNSLIQTGLAMAMPLCGHRLNHFFCEMPVFLKLACADTEGTEAKMFVARVIVVAVPAALILGSYVHIAHAVLRVKSTAGRRKAFGTCGSHLLVVFLFYGSAIYTYLQSIHNYSEREGKFVALFYTIITPILNPLIYTLRNKDVKGALWKVLWRGRDSG [OR2Y1]
- plasma membrane surface immunostaining intensity (GPCR class: A (Olfactory)): 132 ± 17

Sequence: MSIMMLPMEQKIQWVPTSLQDITAVLGTEAYTEEDKSMVSHAQKSQHSCLSHSRWLRSPQVTGGSWDLRIRPSKDSSSFRQAQCLRKDPGANNHLESQGVRGTAGDADRELRGPSEKATAGQPRVTLLPTPHVSGLSQEFESHWPEIAERSPCVAGVIPVIYYSVLLGLGLPVSLLTAVALARLATRTRRPSYYYLLALTASDIIIQVVIVFAGFLLQGAVLARQVPQAVVRTANILEFAANHASVWIAILLTVDRYTALCHPLHHRAASSPGRTRRAIAAVLSAALLTGIPFYWWLDMWRDTDSPRTLDEVLKWAHCLTVYFIPCGVFLVTNSAIIHRLRRRGRSGLQPRVGKSTAILLGITTLFTLLWAPRVFVMLYHMYVAPVHRDWRVHLALDVANMVAMLHTAANFGLYCFVSKTFRATVRQVIHDAYLPCTLASQPEGMAAKPVMEPPGLPTGAEV [GPR142]
- plasma membrane surface immunostaining intensity (GPCR class: A): 165 ± 58

Sequence: MWQKNQTSLADFILEGLFDDSLTHLFLFSLTMVVFLIAVSGNTLTILLICIDPQLHTPMYFLLSQLSLMDLMHVSTIILKMATNYLSGKKSISFVGCATQHFLYLCLGGAECFLLAVMSYDRYVAICHPLRYAVLMNKKVGLMMAVMSWLGASVNSLIHMAILMHFPFCGPRKVYHFYCEFPAVVKLVCGDITVYETTVYISSILLLLPIFLISTSYVFILQSVIQMRSSGSKRNAFATCGSHLTVVSLWFGACIFSYMRPRSQCTLLQNKVGSVFYSIITPTLNSLIYTLRNKDVAKALRRVLRRDVITQCIQRLQLWLPRV [OR2AE1]
- plasma membrane surface immunostaining intensity (GPCR class: A (Olfactory)): 159 ± 49

Sequence: MKSILDGLADTTFRTITTDLLYVGSNDIQYEDIKGDMASKLGYFPQKFPLTSFRGSPFQEKMTAGDNPQLVPADQVNITEFYNKSLSSFKENEENIQCGENFMDIECFMVLNPSQQLAIAVLSLTLGTFTVLENLLVLCVILHSRSLRCRPSYHFIGSLAVADLLGSVIFVYSFIDFHVFHRKDSRNVFLFKLGGVTASFTASVGSLFLTAIDRYISIHRPLAYKRIVTRPKAVVAFCLMWTIAIVIAVLPLLGWNCEKLQSVCSDIFPHIDETYLMFWIGVTSVLLLFIVYAYMYILWKAHSHAVRMIQRGTQKSIIIHTSEDGKVQVTRPDQARMDIRLAKTLVLILVVLIICWGPLLAIMVYDVFGKMNKLIKTVFAFCSMLCLLNSTVNPIIYALRSKDLRHAFRSMFPSCEGTAQPLDNSMGDSDCLHKHANNAASVHRAAESCIKSTVKIAKVTMSVSTDTSAEAL [CNR1]
- plasma membrane surface immunostaining intensity (GPCR class: A): 130 ± 25
